Results reported in the DeepSol protein solubility set.

Test: soluble on expression in E. coli; label from the status in PepcDB or PDB records

Sequence	soluble on expression in E. coli
MMKFKKCLLPVAMLASFTLAGCQSNADDHAADVYQTDQLNTKQETKTVNIISILPAKVAVDNSQNKRNAQAFGALIGAVAGGVIGHNVGSGSNSGTTAGAVGGGAVGAAAGSMVNDKTLVEGVSLTYKEGTKVYTSTQVGKECQFTTGLAVVITTTYNETRIQPNTKCPEKS	not soluble
MYIRINNGVTECNIRLVGTAHVSDDSITEVKNAIVETDPELVAIELDKDRFVAMFQNKKNDVDLKSVIKQGKVGIYIVHSILANFQKNIGEQFGIKPGSEMKKATDLAIQYQKPISLIDRPINITLSRTVNKMTFKEKFDFVIGLLTEQNVELDEKAINEMVSNADDLILLLKDISPSIYETLVNERDKYMAKNLFEASKGKENIVAVVGAGHVPGIKNYLKKMESGEDIDLKSLM	not soluble
MSGAAAASAAGYDRHITIFSPEGRLYQVEYAFKATNQTNINSLAVRGKDCTVVISQKKVPDKLLDPTTVSYIFCISRTIGMVVNGPIPDARNAALRAKAEAAEFRYKYGYDMPCDVLAKRMANLSQIYTQRAYMRPLGVILTFVSVDEELGPSIYKTDPAGYYVGYKATATGPKQQEITTNLENHFKKSKIDHINEESWEKVVEFAITHMIDALGTEFSKNDLEVGVATKDKFFTLSAENIEERLVAIAEQD	soluble
SLSPAMSFLKSFPPPGSADGLRLQQPDTEAVLNGKGLGTGTLYIAESRLSWLDGSGLGFSLEYPTISLHAVSRDPNAYPQEHLYVMVNAKLGEESKEPLSDEDEEDNDDVEPISEFRFVPSDKSALEAMFTAMCECQALHPDPEDEDSDDYDGEEYDVEAHEQGQGDIPTFYTYEEGLSHLTAEGQATLERLEGMLSQSVSSQYNMAGVRTEDSVRNYEDGMEVETTPTVAGQFEDADVDH	soluble
MKIQDLLKKEVMIMDLKATSKEAAIDEMITKLVDTGVVTNFAIFKDGIMKREAQTSTGLGDGIAMPHSKNAAVKEATVLFAKSASGVDYEALDGQPTDLFFMIAAPDGANDTHLAALAELSKYLLKEGFADQLRQAKTPDDIIATFDS	soluble
MDFLQGDRGDYKSALGSLQQVGYGSVIAKIRLAFNATGSVLRKRVLKEEQIEETVAKELEERRRTWDVNNGQFDKFSQWYIEYRKNLWHKDDYLPWLLYENEISCLKLTFDVCERPPRRINYGGRNRYTCEN	not soluble
MGSDKIHHHHHHMPRVIKHPEIRREDILDHAQALFLTQGYDRASLNDVIASAGISKGAFYHYFASKEALLEALADRFARQALAGVQGVVDDPGLDPLGRLNGLLSQSRQAKIETAAEAWALFETMFRPENLVLFHRINLAANASFSPLLVKIIRQGVEDGTFRTFDPEGVADIVMQFGLATHDVVAKAIAGGSDADMEVAIEVLEKRVRLYEIALDRILGLPDGSIRIGEPGYIRAVMTARRKADKAR	not soluble
MSLSSEQQAMIDYVLAGKDVIVDATVGSGKTTAIQRLCSIMGADHDVLYLTYSKLLKVDAQQRVRGAKVQNYHGIVYPHLLKAGIKCGISESIREFNKNFKHISRTFPSYDLLVIDEYQDINEDYAELLRNIKSVNPLMQIVMVGDLEQKVRSDTTLDPQEFAAQLCEDPVFAPFTQSFRIGEAMAAGLADAWNKPIVGANTAQQIEYRSFAEAVVLIQSTEPSKLLCLGSRNGQMSDALNVVERKSPAKFNKKTVFASIRDGDSQIAHPNDAAVFTTFDSSKGLERDTCVVFDYDEEFWDMRLGYPNVDPVVMRNVFLVAASRGKNKVVFVRSDSLQAAYEAGADWAAGLAVGVVDNNTEVAPEVDAHTPAEESKGDVGEVQSQIERMMGFIPVSVFKELPELAPSEYARPISVTEAFDFKYAENVEACFDLLDVKRLDNGKGAAIEVNRSDGLIDLSPTVGNFQEAVFFKDYNVHTALSAYPSQFAKNLKRLVKKNNSVWRNCLIVTAASTEQMRYVDQVRSSIPVAAEKALVSRLSTRLNADSRNQIPLILDGEAVQSKVVRTPMSFAGVADAVHKGVLYELKFVSELTHPMFLQLAMYLVMSGMKDGILWNTRTDEAWQVRVPDPKRFLNAVVLCVSKQDYRVGNFDLPSTGGEGHHHHHH	not soluble
MPNRKVVKFFFDVISPYSYFGFEGITRHRSVWKTPIQMKPFFFAGVVRHTENPGLPLRIPIKEKYMHKDLLFSAQYWGIPFRLPKDYTNMMLNTSSIVPQRILVASQLRDNVLMEDVARGLWHRFYAYGKPIFTKSQVAEVLRDLHVKDVDELVMMSDSAEVKNILRENTDEAIGNGCFGAPWMHITDGHGKVLQTVFGSDRLPQVADFLAEPFKGPMREKKPNA	not soluble
GMNGFSQLEGLRGHPSVVRVIGHRGARGVMPENTLEGFAFTLAAGVRALEFDVVMTADGVPVVTHNHHLANAMTRDGQGHWLTGAERQVAEMTYAEIRALDVGGLDGRTVYGRRFPDQAFLTGIHVPRLGELLDLCAGYGDQAPYLLLELKSDPALMHDHAARAEMVAAVLADVRRYRMEPRTVMHSFDWALLGECRRQAPDLPTSYLSQLPENADDPGEDSAKPVGPDYDRMTESLPQAVASAGGQLWCPYFLDVTPELVAEAHDLGLIVLTWTVNEPEDIRRMATTGVDGIVTDYPGRTQRILIDMGLSWT	soluble
MSLSKYAVSYVYKTFADIGSYAWAKKQIEVLASKGVINGTSDTTFTPQADITRADFMILLVKALGLTAEVTSNFDDVSEKDYYYEYVGIAKELGITTGVGNNKFNPKAKITRQDMMVLTTNALRIAGKISSTGTRADVERFSDKDQIASYAVEGVATLVKEGIVVGSGDIINPRGNASRAELAAIIYKIYYKEGHHHHHH	soluble
MSLNKLEKEASVFFKKNQESVSQDFKKKVSSIEMFSTSLNSEENQSLDRLFLSETQNLSDEESYQEDVLSVKLLTSQIKAIQKQHVLLLGEKIYNARKILSKSCFSSTTFSSWLDLVFRTKSSAYNALAYYELFISLPSTTLQKEFQSIPYKSAYILAARKGDLKTKVSVIGKVCGMSNASAIRVMDQLLPSSRSKDNQRFFESDLEKNRQLSDLLVELLRIVCSGVFLSPYNENLLQQLFEVYKQKSEGHHHHHH	soluble
MKDTVKSLKQELQTITHWEHSQKDLWFWEKLGRLPFQVLDKLTPKVVHRKLGQLLDELGSYIQSGGQYLVNEGKVLDKLGVSSLAEVPHLPLETMDRVCDELIDARVTFAQLQGAATGIGGALTLAVDIPALLGLALKTLQEIAIVYGYDPKEKEERVFVVKCLQFAAADIVGKKAILDELSSFSNERGRVFSELQGWREVMMTFRDQYGWKKLFQAVPIIGVIFGSLFNKSFMEDIAETGKMLYRKRRIIEKLKQFEPGI	not soluble
MEPTEKSMLLETTSTTKMETKYEDMLPVMAEKMDVEEFVSELCKGFSLLADPERHLITAESLRRNSGILGIEGMSKEDAQGMVREGDLDGDGALNQTEFCVLMVRLSPEMMEDAETWLEKALTQELCNHNLSSMP	soluble
ASGSSFASTRKLLNRHSLHTVCRSAMCPNLHECWSKGTATFLLLGNVCTRSCRFCAVGTECRPAMPDPEEPSKIAEAVKTMKLRHAVLTSVNRDDLADGGATHWVETIRAIREVNPGVSLECLIPDFSGNEQSLDLVMQELPEVLNHNIETVPSRYAAVRPQALYERSLAVIERAKRQFRLATKSGMMVGMGETEEELEASLHDLRGHGCDMVTIGQYLQPTAAHLPVSRYVTPEEFERYREIALDAGFRHVQSGPFVRSSYHAEAFEPVEK	not soluble
MYRIIEAPNSGKYPFSHSLLIGKSCIIDTGSGEALAPLRVDCVLNTHWHEDHIAMNSIGRKVLAHPLDAEAIESYEEFRRRYGIGDSVRLFINFEFGQVDDVFEDGEQLEFEGVSVEVIHTPGHSAGHCCFVINNEAVFLGDIDLTSFGPWYGCLDCDVDDFVRSVKKMMREVERRDIEIAIPSHGRPVYGKEEIIGAMREYLKKIFERDKAIRELVRLGVDPVGKGIIYRKIPEPREIYLHFEKIMVEKHLTTSLDEFCLDLEHHHHHH	not soluble
MDAIVMAGGFGQRLGMGEKPCVELLGKPLITYVIDNLRASKNIDRVFVAVSPVTPKTEIMIQERYKGEVQVIRTFGGNYVGDMIHAVETSNTAGPVMIIMSDLPLVNPDLIDSVIEKYREEGKPALSVYVPINVCRGTGTRPDTVFNKDGKLIVPAGVNILDSSQIRKEQEDFNLILDNPRLAINVNTVKDLQRCKDLLQCSN	soluble
MGSDKIHHHHHHMADAPIDIFQSILSRKSIRAFTDQPVTQETIREILKLAARAPSGTNLQPWQVIVLTGKILQKVGQELSQLVLSGIKGEREYHYYPRQWREPYLSRRRKVGLDLYKSLGIQKGDQEKMLHQKAKNFLFYGAPVGLLFTIDHDMEMGSWLDLGMFMQTIMLAARGFGLDTCAQAAFADYHKQIRSLLSVPSDRHIICGMALGYRDMNAPENNFETEREPIDNFVHFIKSYP	not soluble
GVVIREALSSSNAVPAIDFDRKELIDIPAYQGPGKNVVRPPVDLDPSYNPFKETGLTEPIRSSRRQSPDMGWNELFKQFEAKRDAEKMAEPPIRSEELFASTDFTPSAVSATPSTDMLCYVHRGRYLVTTLSRGLALVDFHRAHKRILYDRFMADESRRHIEQQQLLFPELLEFNPSDASAVKAAVDELQSVGFDLSPLGVSSYSLLAAPVQIIDCAADVVRDVIHTTLEDGRSSHEQMLELIATQIAEYQAIPCGKTPTAEEASDLLAELFASNDSTYTPDGKLIVSIIEEADIARRFE	not soluble
MSLKRTVDFSMFRCPLCDSSMDAASGKSLICTERGHTFDLSRHGYVNFLTKPVKTSYGAELFEARSRLIGECGFFDPLHDAIAELISHPKSGHEAFTILDSGCGEGSHLNALCGFDYAGKAAIGTGIDLSKDGILKASKAFKDLMWAVADVARAPFHDRQFDVVLSIFSPSNYAEFHRLLKNDGMLIKVVPRSDYLIELRQFLYTDSPRRTYSNTAAVERFTANAAHSRPVRLRYVKTLDQQAIHWLLKMTPLAWSAPKDRVSLLKEMKSADITVDVDILIGMKEGHHHHHH	soluble
MENLYFQGLEHHHHHHENSSPYTSEHFHYTVTDIKDLTKLGAIYDKTKKYWVYQGKPVMPDQFTFELLDFLHQLTHLSFSKMKALLERSHSPYYMLNRDRTLKNITETCKACAQVNASKS	soluble
MSLSPPKPSALAHVPGDEGWPIIGRTLAVLADPKGEVEKMARTYGPVYRSRVLGETSITLLGPEANELVLFDNTKLFSSTHGWGPILGRLFPRGLMMLDFDEHRLHRRTLSVAFKAGPMQSYLAELNAGIAHRVAEWRARPGEMLCYPAMKQLTLDLAATSFLGTAIGAETEEVNRAFIDMVAASVAPIRKPWPGTAMARGVKGRQRIVAYFAEQIPIRRAKGGDDLFSQLCRATHDDGALLSNQAIIDHMSFLMMAAHDTLTSSLTSFVAALAAHPEWQQKLREEIAGLGLKPGEPISFEQLDALPLTEMAFKEAMRLRPPVPSLPRRATRAFSFKGYTIPAGTMVAVNPLFTHHMPEIWPNPDQFDPLRFTDEASRGRHRFAWIPYGGGAHMCLGLNFAYMQAKCFAVHLLQHLDLSLPPNYQASWQMWPIPKPKDGLRVNVAPLNEGHHHHHH	soluble
